Measurements published in the nanobody polyreactivity screen of Harvey et al. (2022).

Experiment: yeast display, Sf9 membrane polyspecificity reagent, FACS + sequencing; frameworks hold sequencing errors
How it was run: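 A synthetic nanobody library was expressed on Saccharomyces cerevisiae BJ5465 by galactose induction for 36–48 hours. The library was stained for 1 hour at 4 °C with 10% biotinylated, detergent-solubilized Sf9 membrane reagent and enriched with streptavidin microbeads before FACS. Low and high (top ~1%) gates were set on anti-HA fluorescence for expression and streptavidin fluorescence for reagent binding, and each polyreactivity label reflects the gate of origin.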

Sequence	polyreactivity (PSR sort gate)
QVQLVESGGGLVQAGGSLRLSCAASGRIFPTYAMVWYRQAPGKDRELVASISWSGGRTYYADSVKGRFSISRDNAKITVFLQMNSLKPEDTAVYYCAKRTYQGEGTVKRRYDYWGQVTQVTVSS	low polyreactivity
QVQLVESGGGLVQAGGSLRLSCAASGRIFPTYTMGWYRQAPGKERELVAGISYSGTSTSYADSVKGRFTISRDNAKNTVYLQMNSLKPEDTAVYYCAAKYYGRSFYYGYDYWGQGTQVTVSS	low polyreactivity
QVQLVESGGGLVQAGGSLRLSCAASGRIFPVNAMGWYRQAPGTERELVATISSGDITNYAHSVKGRFTISRDNAKNTVYLQMNSLKPEDTAVYYCAADYTWRAWTYYGIKYNYWGQGTQVTVSS	low polyreactivity
QVQLVESGGGLVQAGGSLRLSCAASGRIFPVYTMGWYRQAPGKERELVAAITSSGGSTYYADSVKGRFTISRDNAKNTVYLQMNSLKPEDTAVYYCAKRAGWAYYYWGQGTQVTVSS	high polyreactivity
QVQLVESGGGLVQAGGSLRLSCAASGRIFPWNTMGWYRQAPGKERELVAGITSCGSTNYADSVKGRFTISRDNAKNTVYLQMNSLKPEDTAVYSCAARGYYWYISGVYEYEYWGQGTQVTVSS	low polyreactivity
QVQLVESGGGLVQAGGSLRLSCAASGRIFPWYAMGWYRQAPGKERALVAAINWRAGRTYYADSVKGRFTISRDNAKNTVYLQMNSLKPEDTAVYYCAAETYSSGEWYDYWGQGTQVTVSS	high polyreactivity
QVQLVESGGGLVQAGGSLRLSCAASGRIFPWYAMGWYRQAPGKERELVATITRGTSTNYADSVKGRFTISRDNAKNTVYLQMNSLKPEDTAVYYCAASSSRRRYYYWGQGTQVTVSS	high polyreactivity
QVQLVESGGGLVQAGGSLRLSCAASGRIFPYYAMGWYRQAPGKERELVAAISYRGTRTSYADSVKGRFTISRDNAKNTVYLQMNSLKPEDTAVYYCAAQRYFGISWPYDYWGQGTQVTVSS	high polyreactivity
QVQLVESGGGLVQAGGSLRLSCAASGRIFPYYAMGWYRQAPGKERELVAAITQGGGRTYYADSVKGRFTISRDNAKNTVYLQMNSLKPEDTAVYYCAKRFTIRALLLRWADYDYWGQGTQVTVSS	low polyreactivity
QVQLVESGGGLVQAGGSLRLSCAASGRIFPYYAMGWYRQAPGKERELVATIRGRVGTTYYADSVKGRFTISRDNAKNSVYLEMNSLKPEDTAVYYCNTDNYSPYRYVGLYDYWGQGTQVTVSS	high polyreactivity
QVQLVESGGGLVQAGGSLRLSCAASGRIFPYYAMGWYRQAPGKERELVATISGGGSTDYADSVKGRFTISRDNAKNTVYLQMNSLKPEDTAVYYFAKKLRGWHTIITDYDYWGQGTQVTVSS	low polyreactivity
QVQLVESGGGLVQAGGSLRLSCAASGRIFQHNTMGWYRQAPGKERDFVAAIRRSGGSTYYADSVKGRFTISRDNAKNTVYLQMNSLKPEDTAVYYCAARDYPTGTRRWGGGDSWGQGTEVTVSS	low polyreactivity
QVQLVESGGGLVQAGGSLRLSCAASGRIFQKNAMGWYRQAPGKERELVAAISGSGSTTNYADSVKGRFTISRDNAKNTVYLQLNSLTPEDTAVYYCATGKRGVSGRGFRYDYWGQGTQVTVSS	high polyreactivity
QVQLVESGGGLVQAGGSLRLSCAASGRIFQRYAMGWYRQAPGKERELVAAITTGGRTYYADSVKGRFTISRDNAKNTVYLQMNSLKPEDTAVYYCAARFVGSRYRFDYWGQGTQVTVSS	high polyreactivity
QVQLVESGGGLVQAGGSLRLSCAASGRIFQYNPMGWYIQAPGKERELVADITWIGGSTYADSVKGRFTISRDTAKNTVYLQMNSLKPEDTAVYYCNARYIYRFDYWGQGSQVTVSS	low polyreactivity
QVQLVESGGGLVQAGGSLRLSCAASGRIFQYNVMGWYRQAPGKERELVAAISSGGNTYYADSVKGRFTISRDNAKNTVYLQMNSLKPEDTAVYYCAADHYVPWPNYDYDYWGQGTQVTVSS	low polyreactivity
QVQLVESGGGLVQAGGSLRLSCAASGRIFQYSAMGWYRQAPGKEREFVASITFRGGRTNYADSVKGRFTISRDNAKNTVYLQMNSLKPEDTAVYYCAVSLRRGGSGYAYDYWGQGTQVTVSS	high polyreactivity
QVQLVESGGGLVQAGGSLRLSCAASGRIFQYYAAMGWYRQAPGKERELVASIRATGGSTYYADSVKGRFTISRDNAKNTVYLQMNSLKPEDTAVYYCAARFAAKSLPAYDYWGQGTQVTVSS	low polyreactivity
QVQLVESGGGLVQAGGSLRLSCAASGRIFQYYDMGWYRQAPGKERELVAAITFSGGSTYYADSVKGRFTISRDNAKNTVYLQMNSLKPEDTAVYYCARGYWVYYPDGDYWGQGTQVTVSS	low polyreactivity
QVQLVESGGGLVQAGGSLRLSCAASGRIFQYYDMGWYRQAPGKERELVATITSGGSTNYADSVKGRFTISRDNAKNTVYLQMNSLKPEDTAVYYCAALAYTASDYQPYDATEYNYWGQGTQVTVSS	low polyreactivity
QVQLVESGGGLVQAGGSLRLSCAASGRIFRANAMGWSRQAPGKERELVAAISTSGGSTTYADSVKGRFTISRDNSKNTVYLQMNSLKPEDTAVYYCAVDSWLKWRDKWVIRHDYWGQGTQVTVSS	high polyreactivity
QVQLVESGGGLVQAGGSLRLSCAASGRIFRAYTMGWYRQAPGKERELVAAITWRGGRTYYADSVKGRFTISRDNAKNTVYLQMNSLKPEDTAVYYCAAVRKYRAMDYWGQGTQVTVSS	high polyreactivity

Sequence	polyreactivity (PSR sort gate)
QVQLVESGGGLVQAGGSLRLSCAASGRIFRDNAMGWYRQAPGKERELVAAISRRGGSTYYADSVKGRFTISRDNAKNTVYLQMNSLKPEDTAVYYCNKTTQSRTFRYDYWGQGTQVTVSS	low polyreactivity
QVQLVESGGGLVQAGGSLRLSCAASGRIFRDYAMGWYRQAPGNERELVAAISWSGGSTYYADSVKGRFTISRDNAKNTVYLQMNSLKPEDTAVYYCAGDYYGGDSYRYDYWGQGTQVTVSS	low polyreactivity
QVQLVESGGGLVQAGGSLRLSCAASGRIFRDYSMGWYRQAPGKETELVATITWSGATTYYADSVKGRFTISRDNAKNTVYLQMNSLKPEDTAVYYCNTDTDVDVAFDSWGQGTQVTVSS	low polyreactivity
QVQLVESGGGLVQAGGSLRLSCAASGRIFRDYVMGWYRQAPGKERELVAGITGSVDSTNYADSVKGRFTISRDNAKNTVYLQMNSLKPEDTAVYYCNAEFWRGTYRFGYWGQGTQVTVSS	low polyreactivity
QVQLVESGGGLVQAGGSLRLSCAASGRIFRFYAMGWYRQAPGKDRELVAAISSRGGSTYYADSVTGRFTISRDNAKNTVYLQMNSLKPEDTAVYYCAKRSQKAYKYRDYRFDYWGQGTQVTVSS	high polyreactivity
QVQLVESGGGLVQAGGSLRLSCAASGRIFRGNAMGWYRQAPGKERELVAAISWGGGSTYYAYSVKGRFTISRDNAKNTVYLQMNSLKPEDTAVYYWNKEYVFWRFPNWYTYGYWGQGTQVTLSS	high polyreactivity
QVQLVESGGGLVQAGGSLRLSCAASGRIFRGNVMGWYIQAPGKERELVATITSSARTYYADSVKGRFTISRDNAMITVYLQMNSLKPEDTAVYYCAAKTRWNFYYWGQGTQVSVSS	high polyreactivity
QVQLVESGGGLVQAGGSLRLSCAASGRIFRGNVMGWYRQAPGKERELVAVIRSSSGRTYYADSVKGRFTISRDNAKNTVYLQMNSLKPEDTAVYYCAAKSVWGQGTQVTVSS	high polyreactivity
QVQLVESGGGLVQAGGSLRLSCAASGRIFRGYAMGWYRQAPGKEREFVDAITKNGGSTYYADSVKGRFTISRDNAKNTVYLQMNSLKPEDTAVYYCAVRAWDPYTGKSEYWGQGTQVTVSS	low polyreactivity
QVQLVESGGGLVQAGGSLRLSCAASGRIFRGYAMGWYRQAPGKERELVAAISGGGGSTYYADSVKGRFTISRDNAKNTVYLQMNSLKPEDTAVYYCNALRIRGSKVFEGDYWGQGTQVTVSS	high polyreactivity
QVQLVESGGGLVQAGGSLRLSCAASGRIFRGYAMGWYRQAPGKERELVAAISNGGGTNYADTVKGRFTISRDNAKNTVYLQMNSLKPEDTAVYYCATGFLQNYYKYTSSFRFYYWGQGTQVTVSS	high polyreactivity
QVQLVESGGGLVQAGGSLRLSCAASGRIFRGYAMGWYRQAPGKERELVAAITRGGSTKYADSVKGRFTISRDNAKNTVYLQMNSLKPEDTAVYYCAKDSYPYVPLYRSRSLYGYWGQGTQVTVSS	high polyreactivity
QVQLVESGGGLVQAGGSLRLSCAASGRIFRGYAMGWYRQAPGKERELVATISAIGGSTYADSVKGRFTISRHNAKNTVYLQMNSLKPEDTAVYYCNVRKVYRYQYRFEYWGQGTQVTVSS	high polyreactivity
QVQLVESGGGLVQAGGSLRLSCAASGRIFRGYGMAWYRQAPGKERELVAAISRGGNTDYADSVKGRFTISRDNANNTVYLQMNSLKPEETAVYYCAVGYVSYRKLYLYNSWGQGTQVTVSS	high polyreactivity
QVQLVESGGGLVQAGGSLRLSCAASGRIFRGYTMGGYRQAPGKERELVADITKRGGSTDYADSVKGRFTISRDNAKNTVYLQMNSLKPEDTEVYSCAARGPTFGVDYGYWGQGTQVTGSS	high polyreactivity
QVQLVESGGGLVQAGGSLRLSCAASGRIFRGYVMGWYIQAPGKERELVAAISINGGRTYYADSVKGRFTISRDNAKNTVYLQMNSLKPEDTAVYYCAAEPIYFRGLYYYWGLGTQVTVSS	high polyreactivity
QVQLVESGGGLVQAGGSLRLSCAASGRIFRHNAMGWYRQAPGKERELVDAITSRGGTYNAHSVKGRFTISRDNAKITVFLQMTSLNPEETAVYFCNADEALYSSGNKYDYWGQGTQVSVSS	low polyreactivity
QVQLVESGGGLVQAGGSLRLSCAASGRIFRHYAMGWYRQAPGKERELVAAISGGGGRTYYADSVKGRFTISRDNAKNTVYLQMNSLKPEDTAVYYCAKRPSYAYSRYRKGHDYWGQGTQVTVSS	high polyreactivity
QVQLVESGGGLVQAGGSLRLSCAASGRIFRINGMGWYRQAPGKEREFVAAITSGGGTYYADSVKGRFTISRDNAKNTVYLQMNSLKPEDTAVYYCAAPSYRTRYYYWGQGTQVTVSS	high polyreactivity
QVQLVESGGGLVQAGGSLRLSCAASGRIFRINGMGWYRQAPGKEREFVAAITSGGGTYYADTVKGRFTISRDNAKNTVYLQMNSLKPEDTAVYYCAAPSYRTRYYYWGQGTQVTVSS	high polyreactivity
QVQLVESGGGLVQAGGSLRLSCAASGRIFRIYAMGWNRQAPGKERELVARLTYSGGSTYYADSVKGRFTISRDNAKNTVYLQMNSLKPEDTAVYYCAADWLGYQYGYWGQGTQVTVSS	low polyreactivity
